For two sequences, Kd results are on record in paper PMC5815017.

The target in data set [1] is T1, Spo0J (ParB) (Bacillus subtilis) (UniProt P26497).
T1 sequence: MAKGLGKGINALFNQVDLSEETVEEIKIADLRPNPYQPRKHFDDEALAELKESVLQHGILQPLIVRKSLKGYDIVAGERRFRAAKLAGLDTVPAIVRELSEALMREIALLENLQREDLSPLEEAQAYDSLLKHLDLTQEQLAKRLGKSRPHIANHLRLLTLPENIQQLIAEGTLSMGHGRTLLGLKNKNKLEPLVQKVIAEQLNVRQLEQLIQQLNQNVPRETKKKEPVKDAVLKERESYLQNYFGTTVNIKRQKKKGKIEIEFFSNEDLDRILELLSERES
The data set can be described thus: SPR. The conditions noted are these: apparent Kd; SPR (ReDCaT, Biacore T200), HBS-EP+: 10 mM HEPES pH 7.4, 150 mM NaCl, 3 mM EDTA, 0.005% Surfactant P20, 25 C; ParB given as dimer.

Data set [2] addresses T2, ParB (Caulobacter crescentus) (UniProt B8GW30).
T2 sequence: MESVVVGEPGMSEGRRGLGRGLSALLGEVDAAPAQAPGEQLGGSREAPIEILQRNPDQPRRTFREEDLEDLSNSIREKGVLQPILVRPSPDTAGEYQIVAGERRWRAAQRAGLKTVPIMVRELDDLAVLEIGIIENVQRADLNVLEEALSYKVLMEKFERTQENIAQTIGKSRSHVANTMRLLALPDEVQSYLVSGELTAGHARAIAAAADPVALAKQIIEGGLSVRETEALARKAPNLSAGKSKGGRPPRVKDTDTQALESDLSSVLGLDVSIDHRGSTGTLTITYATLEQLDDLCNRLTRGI
The data set can be described thus: SPR. The conditions noted are these: value assigned by figure order; SPR (ReDCaT, Biacore T200), HBS-EP+: 10 mM HEPES pH 7.4, 150 mM NaCl, 3 mM EDTA, 0.005% Surfactant P20, 25 C; ParB given as dimer.

Turning to “AGAATGTTCCACGTGAAACAAAGA / TCTTTGTTTCACGTGGAACATTCTCCTACCCTACGTCCTCCTGC [B. subtilis parS 359]”, the Kd in data set [1] is 114 nM.

In the case of “CGATGTTTCCACGTGAAACAAGGC / GCCTTGTTTCACGTGGAAACATCGCCTACCCTACGTCCTCCTGC [parS site 7]”, in data set [2], the Kd was 144 nM.
